These sequences were tested on TetR (assay: SPR). Conditions: streptavidin surface, promoters at 30-50 RU, TetR 4-62 nM, regeneration with 1 M NaCl and 1 M MgCl2, running buffer, pH and temperature not given in the ….
“CGCGCGCCTTTCTGCGTTTATATACTAGAGTCCCTATCAGTGATAGAGATTGACATCCCTATCAGTGATAGATATAATGAGCACTACTAGAGTAGTGGAGGTTACTAGATGGTGAGCAAGGGCGAGGAGCTGTTCACCGGGGTGGTGCCCATCCTGCGCG (double strand) [L12 promoter]” gave a Kd of 8 nM.
Sequence “CGCGCGCCTTTCTGCGTTTATATACTAGAGTCCCTATCAGTGATAGAGATTGACATCCCTATCAGTGATAGATATAATGGGCACTACTAGAGTAGTGGAGGTTACTAGATGGTGAGCAAGGGCGAGGAGCTGTTCACCGGGGTGGTGCCCATCCTGCGCG (double strand) [L11 promoter]” has a Kd of 6 nM.
For “CGCGCGCCTTTCTGCGTTTATATACTAGAGTCCCTATCAGTGATAGAGATTGACATCCCTATCAGTGATAGATATAATGCGCACTACTAGAGTAGTGGAGGTTACTAGATGGTGAGCAAGGGCGAGGAGCTGTTCACCGGGGTGGTGCCCATCCTGCGCG (double strand) [L09 promoter]”, the Kd was 6 nM.
“CGCGCGCCTTTCTGCGTTTATATACTAGAGTCCCTATCAGTGATAGAGATTGACATCCCTATCAGTGATAGATATAATGTGCACTACTAGAGTAGTGGAGGTTACTAGATGGTGAGCAAGGGCGAGGAGCTGTTCACCGGGGTGGTGCCCATCCTGCGCG (double strand) [L10 promoter]” gave a Kd of 5 nM.
